Measured values taken from patent publication US20130323281A1.

Target: human TLR5 on HEK-Blue-hTLR5 cells (human) (UniProt O60602)
Assay: cell-based or functional assay

Sequence of UniProt O60602 (O60602 21-858): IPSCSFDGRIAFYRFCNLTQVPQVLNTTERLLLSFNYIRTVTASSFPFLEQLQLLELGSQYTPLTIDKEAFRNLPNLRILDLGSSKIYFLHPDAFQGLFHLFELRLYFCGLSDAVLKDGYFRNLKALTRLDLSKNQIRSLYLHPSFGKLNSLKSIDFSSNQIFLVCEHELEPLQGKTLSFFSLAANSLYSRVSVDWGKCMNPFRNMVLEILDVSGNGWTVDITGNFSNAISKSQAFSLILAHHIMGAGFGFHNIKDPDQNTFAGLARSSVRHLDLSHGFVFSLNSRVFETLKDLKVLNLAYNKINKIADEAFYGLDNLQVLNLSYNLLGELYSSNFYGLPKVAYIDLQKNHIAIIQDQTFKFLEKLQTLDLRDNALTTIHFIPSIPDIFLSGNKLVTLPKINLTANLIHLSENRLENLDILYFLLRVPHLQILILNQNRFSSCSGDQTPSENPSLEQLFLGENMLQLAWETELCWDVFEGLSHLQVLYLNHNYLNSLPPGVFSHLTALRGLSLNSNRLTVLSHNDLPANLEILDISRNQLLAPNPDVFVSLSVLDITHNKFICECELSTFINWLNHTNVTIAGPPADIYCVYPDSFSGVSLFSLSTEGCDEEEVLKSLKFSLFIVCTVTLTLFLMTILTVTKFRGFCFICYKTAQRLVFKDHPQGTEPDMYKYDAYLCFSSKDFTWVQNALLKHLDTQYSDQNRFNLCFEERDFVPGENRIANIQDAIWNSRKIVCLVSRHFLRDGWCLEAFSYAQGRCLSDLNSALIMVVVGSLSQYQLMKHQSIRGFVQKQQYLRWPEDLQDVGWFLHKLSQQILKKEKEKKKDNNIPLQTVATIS

Substance: flagellin (G239HPG, M310I, M466I) conjugated to Hepatitis B core (HBc) VLP by azide-alkyne click reaction
- flagellin bioactivity (SEAP reporter, HEK-Blue-hTLR5 cells), fold against free flagellin: 10 fold

Substance: flagellin (fliC gene product) from Salmonella typhimurium SL1344, wild-type, produced by cell-free protein synthesis (from UniProt P06179 2-495) (ligand)
- EC50 in flagellin bioactivity assay (SEAP reporter, HEK-Blue-hTLR5 cells): 2.4 pM
- bioactivity assay (SEAP reporter, HEK-Blue-hTLR5 cells), given as 'affinity': 6 pM

Substance: flagellin Mutation III (M1HPG, Ala2Ile, M310I, M466I) conjugated to Hepatitis B core (HBc) VLP
- bioactivity assay (SEAP reporter, HEK-Blue-hTLR5 cells), fold against free flagellin: 5 fold
